The text below walks through data of patent US20240279318A1 (NANJING LEGEND BIOTECH, published 2024).

Sequences and labels used below:
B1: AS170036 VL1VH1-VLH98V (scFv)
scFv: QSALTQPRSVSGSPGQSVTISCAGTSSDVGSENYVSWYQQHPGKAPKLMIYQVNKRASGVPDRFSGSKSGNTASLTISGLQAEDEADYYCASYRSSDVNIVFGGGTKLTVLGGGGSGGGGSGGGGSEVQLVESGGGLVQPGGSLRLSCAASGFTFSSYAMSWVRQAPGKGLEWVSTINSGTGSPYYADSVKGRFTISRDNSKNTLYLQMNSLRAEDTAVYYCAKNFFDGSWFLGPPAMDYWGQGTLVTVSSHHHHHH
B2: AS170036 VL1VH1-VHG108M (scFv)
scFv: B1 scFv with V98H, G234M
B3: AS170036 VL1VH1-VLH98P (scFv)
scFv: B1 scFv with V98P
B4: AS170036 VL1VH1-VLH98T (scFv)
scFv: B1 scFv with V98T
B5: AS170036 VL1VH1-VHG108E (scFv)
scFv: B1 scFv with V98H, G234E
B6: AS170036 VL1VH1-VLE32W (scFv)
scFv: B1 scFv with E32W, V98H
B7: AS170036 VL1VH1-VLH98A (scFv)
scFv: B1 scFv with V98A
B8: AS170036 VL1VH1-VHG108N (scFv)
scFv: B1 scFv with V98H, G234N
B9: AS170036 VL1VH1-VHG56F (scFv)
scFv: B1 scFv with V98H, G182F
B10: AS170036 VL2VH2 scFv-mIgG2aFc (Fc fusion, not shown: a dimerising Fc or GST)
scFv: QSALTQPRSVSGSPGQSVTISCAGTSSDVGSENYVSWYQQHPGKAPKLLIYQVNKRASGIPDRFSGSKSGNTASLTISGLQAEDEADYYCASYRSSDHNIVFGGGTKLTVLGGGGSGGGGSGGGGSEVQLVESGGGLVQPGGSLRLSCTASGFTFSSYAMSWVRQAPGKGLEWVSTINSGTGSPYYADSVKGRFTISRDNSKNTLYLQMNSLRAEDTAMYYCAKNFFDGSWFLGPPAMDYWGQGTLVTVSS

Residue numbers refer to the chain shown, from its start.

The target in one assay is ARNTL peptide/HLA-A*02:01 complex (recombinant) (human). Kind of assay: SPR.
As for B1, the binding result is on record as “no binding”.

Turning to B2, the binding result is given as “no binding”.

Turning to B3, the binding result is reported as “no binding”.

As to B4, the binding result was “no binding”.

As to B5, the binding result is recorded as “no binding”.

In the case of B6, the binding result is “no binding”.

Turning to B7, the binding result was “no binding”.

For the molecule B8, the binding result is on record as “no binding”.

For B9, the binding result is listed as “no binding”.

A further assay deals with ATG9A peptide/HLA-A*02:01 complex (recombinant) (human). Nature of the assay: SPR. (In general: SPR reads the build-up and loss of mass on a sensor chip optically.)
In the case of B1, the binding result is “no binding”.

Take B2: the binding result is listed as “no binding”.

For B3, the binding result is “no binding”.

As to B4, the binding result was “no binding”.

Take B5: the binding result is recorded as “no binding”.

Regarding B6, the binding result is “no binding”.

As to B7, the binding result is recorded as “no binding”.

B8: the binding result is listed as “no binding”.

On to B9, for which the binding result is listed as “no binding”.

The next assay deals with BRCA2 peptide/HLA-A*02:01 complex (recombinant) (human). Nature of the assay: SPR.
For B1, the binding result is “no binding”.

Consider B2, for which the binding result is “no binding”.

Turning to B3, the binding result is recorded as “no binding”.

On to B4, for which the binding result is given as “no binding”.

As for B5, the binding result is given as “no binding”.

Consider B6, for which the binding result is reported as “no binding”.

As to B7, the binding result is given as “no binding”.

Take B8: the binding result was “no binding”.

For B9, the binding result was “no binding”.

Another assay addresses CDC14A peptide/HLA-A*02:01 complex (recombinant) (human). Kind of assay: SPR.
Turning to B1, the binding result is given as “no binding”.

For the molecule B2, the binding result is “no binding”.

In the case of B3, the binding result is “no binding”.

With B4, the binding result is reported as “no binding”.

B5: the binding result was “no binding”.

With B6, the binding result is “no binding”.

Regarding B7, the binding result was “no binding”.

Take B8: the binding result is recorded as “no binding”.

Consider B9, for which the binding result was “no binding”.

In the next assay the target is NR2E1 peptide/HLA-A*02:01 complex (recombinant) (human). Kind of assay: SPR.
Consider B1, for which the binding result was “no binding”.

For the molecule B2, the binding result is “no binding”.

As for B3, the binding result was “no binding”.

On to B4, for which the binding result was “no binding”.

As for B5, the binding result was “no binding”.

For the molecule B6, the binding result is reported as “no binding”.

In the case of B7, the binding result was “no binding”.

Take B8: the binding result is given as “no binding”.

With B9, the binding result was “no binding”.

For a further assay, the target named is OR1I1 peptide/HLA-A*02:01 complex (recombinant) (human). Nature of the assay: SPR.
Consider B1, for which the binding result is “no binding”.

B2: the binding result is listed as “no binding”.

Consider B3, for which the binding result was “no binding”.

B4: the binding result was “no binding”.

Take B5: the binding result is recorded as “no binding”.

For B6, the binding result was “no binding”.

Turning to B7, the binding result was “no binding”.

On to B8, for which the binding result is given as “no binding”.

Regarding B9, the binding result is on record as “no binding”.

A further assay has as its target OR51B6 peptide/HLA-A*02:01 complex (recombinant) (human). Nature of the assay: SPR.
With B1, the binding result is “no binding”.

In the case of B2, the binding result is recorded as “no binding”.

As to B3, the binding result is recorded as “no binding”.

On to B4, for which the binding result is on record as “no binding”.

Consider B5, for which the binding result was “no binding”.

For the molecule B6, the binding result was “no binding”.

For the molecule B7, the binding result is reported as “no binding”.

Consider B8, for which the binding result is given as “no binding”.

Consider B9, for which the binding result was “no binding”.

The target of another assay is OR6C1 peptide/HLA-A*02:01 complex (recombinant) (human). Kind of assay: SPR.
For the molecule B1, the binding result was “no binding”.

Turning to B2, the binding result is “no binding”.

B3: the binding result is recorded as “no binding”.

As to B4, the binding result is listed as “no binding”.

Regarding B5, the binding result is given as “no binding”.

Turning to B6, the binding result was “no binding”.

For the molecule B7, the binding result is given as “no binding”.

As for B8, the binding result is “no binding”.

On to B9, for which the binding result is listed as “no binding”.

A further assay addresses PTP4A1 peptide/HLA-A*02:01 complex (recombinant) (human). Kind of assay: SPR.
B1: the binding result is given as “no binding”.

With B2, the binding result is “no binding”.

As to B3, the binding result is on record as “no binding”.

B4: the binding result is reported as “no binding”.

In the case of B5, the binding result was “no binding”.

In the case of B6, the binding result is “no binding”.

As to B7, the binding result is “no binding”.

In the case of B8, the binding result was “no binding”.

Turning to B9, the binding result is reported as “no binding”.

The target in the next assay is RP1 peptide/HLA-A*02:01 complex (recombinant) (human, UniProt P16213 21-119 (Pongo pygmaeus entry)). Nature of the assay: SPR.
In the case of B1, the binding result was “no binding”.

Consider B2, for which the binding result was “no binding”.

Consider B3, for which the binding result is “no binding”.

As for B4, the binding result is “no binding”.

On to B5, for which the binding result is reported as “no binding”.

On to B6, for which the binding result was “no binding”.

B7: the binding result is on record as “no binding”.

On to B8, for which the binding result was “no binding”.

Consider B9, for which the binding result is “no binding”.

In a further assay the target is RCL1 peptide/HLA-A*02:01 complex (recombinant) (human, UniProt P16213 21-119 (Pongo pygmaeus entry)). Kind of assay: SPR.
B1: the binding result is “no binding”.

Take B2: the binding result was “no binding”.

B3: the binding result is “no binding”.

B4: the binding result is reported as “no binding”.

Take B5: the binding result is on record as “no binding”.

Consider B6, for which the binding result is recorded as “no binding”.

On to B7, for which the binding result is listed as “no binding”.

For B8, the binding result is listed as “no binding”.

For the molecule B9, the binding result is on record as “no binding”.

The target of another assay is ZNF566 peptide/HLA-A*02:01 complex (recombinant) (human). Kind of assay: SPR.
Turning to B1, the binding result is given as “no binding”.

B2: the binding result is reported as “no binding”.

As for B3, the binding result is on record as “no binding”.

Turning to B4, the binding result is “no binding”.

Consider B5, for which the binding result is “no binding”.

Regarding B6, the binding result is listed as “no binding”.

B7: the binding result is “no binding”.

B8: the binding result is listed as “no binding”.

Take B9: the binding result is recorded as “no binding”.

Another assay has as its target T1, AFP158/HLA-A*02:01 complex (human).
T1 construct: biotinylated on the BSP by BirA for ELISA and panning; also called biotinylated AFP158/HLA-A*02:01 complex; Bio-AFP158
Kind of assay: SPR; vs AS170036 VL1VH1.
B1 came in with an Affinity increase greater than 2 fold.

In the case of B2, the Affinity increase is greater than 2 fold.

Regarding B3, the Affinity increase was greater than 2 fold.

B4 had an Affinity increase greater than 2 fold.

B5: the Affinity increase is greater than 2 fold.

The molecule B6 came in with an Affinity increase greater than 2 fold.

Turning to B7, the Affinity increase is greater than 2 fold.

For B8, the Affinity increase was greater than 2 fold.

Regarding B9, the Affinity increase is greater than 2 fold.

In the next assay the target is T1, AFP158/HLA-A*02:01 complex. Kind of assay: SPR; vs AS170036 VL1VH1. The source holds these as a separate data set.
In the case of B2, the Affinity increase turned out to be 4.7 fold.

B5 displayed an Affinity increase of 4.1 fold.

For the molecule B8, the Affinity increase stood at 2 fold.

Consider B9, for which the Affinity increase came out at 2.3 fold.

In a further assay the target is T1, AFP158/HLA-A*02:01 complex. Kind of assay: SPR, crude scFv captured.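 Also: Peptide–MHC complex flowed at several concentrations over sensorchip-captured scFv, Kd derived from on- and off-rates obtained from the association and dissociation curves.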
Procedure: The experiment was carried out as follows. The crude scFv protein were captured onto the sensorchip. Different concentrations (320, 160, 40 nM) of AFP158/HLA-A*02:01 complex flowed over the sensorchip surface, and were allowed to bind the antibody fragment for 100 s followed by injection of the running buffer to allow dissociation of the complex. On-rate (kd) and off-rate (kd) were calculated based on association and dissociation curve, and were used to estimate the equilibrium dissociation constant (KD).
In general, Kd refers to the equilibrium constant for the complex coming apart. Higher therefore signals a looser complex. For B2, the affinity, expressed as Kd, was 58 nM.

On to B5, for which binding was put at a Kd of 56 nM.

In turn, B8 displayed a dissociation constant Kd of 140 nM.

In the case of B9, the Kd stood at 98 nM.

Another assay addresses T1, AFP158/HLA-A*02:01 complex. Kind of assay: SPR, scFv-mIgG2aFc from supernatant captured, complex as analyte.
Procedure: The binding affinity between selected antibodies and AFP158/HLA-A*02:01 complex was determined by surface plasmon resonance (SPR) on a BIAcore T200 instrument (GE Healthcare). The experiment was carried out as follows. The purified sdAb/scFv-mIgG2aFc protein were captured through mIgG2a-Fc onto the sensorchip. […] On-rate (kₐ) and off-rate (kd) were calculated based on association and dissociation curve, and were used to estimate the equilibrium dissociation constant (KD).
Humanized heavy chains and light chains were combined, and used to produce a series of humanized antibodies. These antibodies were synthesized as scFv-mIgG2aFc and transiently produced using HEK293 cells. The antibodies in the supernatant were subjected to SPR affinity assessment.
As usually defined, the koff is the first-order rate constant of dissociation. The low end stands for a long-lived complex, the high end for a short-lived complex. By kon is commonly meant the second-order rate constant of association. A low value points to slow association. As to B10, the Kd turned out to be 390 nM, the koff came to 0.072 s⁻¹ and the association rate constant (kon) was determined as 190000 M⁻¹ s⁻¹.
